For one test, the target named is human recombinant biotinylated FcγRIIb (CD32b) (human) (UniProt P31994). Nature of the test: BLI.
Sequence of recombinant anti-Fel d 1 monoclonal antibody F127, human IgG4 format (P01861 whole entry, looked up): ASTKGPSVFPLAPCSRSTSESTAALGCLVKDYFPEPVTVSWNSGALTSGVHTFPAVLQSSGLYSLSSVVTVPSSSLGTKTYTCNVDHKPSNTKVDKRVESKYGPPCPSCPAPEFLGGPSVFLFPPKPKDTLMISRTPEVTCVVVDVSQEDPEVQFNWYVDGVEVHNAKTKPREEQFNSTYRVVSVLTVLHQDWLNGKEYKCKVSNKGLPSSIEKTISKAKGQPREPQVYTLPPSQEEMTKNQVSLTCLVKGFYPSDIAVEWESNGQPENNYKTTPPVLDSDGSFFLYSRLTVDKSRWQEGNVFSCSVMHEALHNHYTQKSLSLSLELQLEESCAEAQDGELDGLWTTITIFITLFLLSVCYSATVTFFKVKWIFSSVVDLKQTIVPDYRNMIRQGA
Sequence of human recombinant biotinylated FcγRIIb (CD32b) (human) (P31994 43-217): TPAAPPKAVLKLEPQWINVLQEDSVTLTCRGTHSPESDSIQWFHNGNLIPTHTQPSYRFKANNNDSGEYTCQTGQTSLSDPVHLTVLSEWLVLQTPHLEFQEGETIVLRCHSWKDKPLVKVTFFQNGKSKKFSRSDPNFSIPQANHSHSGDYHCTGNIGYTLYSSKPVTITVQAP
Sequence of recombinant anti-Fel d 1 monoclonal antibody A044, human IgG4 format (P01861 whole entry, looked up): as the sequence (P01861 whole entry, looked up) above
Sequence of native human IgG4 (P01861 whole entry, looked up): as above
Sequence of recombinant anti-Fel d 1 monoclonal antibody G078, human IgG4 format (P01861 whole entry, looked up): as above
“recombinant anti-Fel d 1 monoclonal antibody G078, human IgG4 format (from UniProt P01861)”: the dissociation constant Kd is 34 nM and the off-rate constant (koff) was 0.0016 s⁻¹. Take “recombinant anti-Fel d 1 monoclonal antibody A044, human IgG4 format (from UniProt P01861)”: the Kd turned out to be 18 nM and the off-rate constant (koff) worked out at 0.00081 s⁻¹. For the substance “recombinant anti-Fel d 1 monoclonal antibody F127, human IgG4 format (from UniProt P01861)”, the dissociation constant Kd was 27 nM and the koff came out at 0.0014 s⁻¹. Take “recombinant anti-Fel d 1 monoclonal antibody A044, human IgG1 format (from UniProt P01857)”: the equilibrium dissociation constant (Kd) stood at 18 nM. For the substance native human IgG4 (from UniProt P01861), the Kd was determined as 31 nM and the off-rate (koff) was found to be 0.002 s⁻¹. As to “recombinant anti-Fel d 1 monoclonal antibody F127, human IgG1 format (from UniProt P01857)”, the Kd worked out at 27 nM.

The target is the same in a further test. Nature of the test: BLI. The source holds these as a separate data set. In general terms: In BLI a coated tip is dipped into the sample, and binding shifts an interference pattern.
“recombinant anti-Fel d 1 monoclonal antibody F127, human IgG4 format (from UniProt P01861)”: the koff is 0.00126 s⁻¹.

One may read the Kd as the concentration at which binding is half-saturated. By koff is commonly meant a measure of how fast the partners let go of each other.

Source of the values: publication PMC9582512.
